Target: human C5a receptor (human) (UniProt P21730)
Assay: cell-based or functional assay

human C5a receptor (human), sequence (P21730 whole entry): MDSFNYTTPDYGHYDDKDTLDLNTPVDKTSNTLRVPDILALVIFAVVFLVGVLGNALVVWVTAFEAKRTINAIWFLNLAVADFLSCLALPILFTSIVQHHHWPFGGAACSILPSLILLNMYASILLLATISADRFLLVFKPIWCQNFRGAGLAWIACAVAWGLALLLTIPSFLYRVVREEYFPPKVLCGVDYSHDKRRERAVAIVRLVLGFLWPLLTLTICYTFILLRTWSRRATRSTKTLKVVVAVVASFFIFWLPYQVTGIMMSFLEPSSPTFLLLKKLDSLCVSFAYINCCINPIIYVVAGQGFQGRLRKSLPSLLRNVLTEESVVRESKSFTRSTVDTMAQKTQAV

Substance | half-maximal effective concentration (EC50) in chemotaxis assay of BA/F3/huC5aR cells
mouse C5a (from UniProt P06684 679-755) (ligand) | 300 pM
recombinant human C5a (from UniProt P01031 678-751) (ligand) | 100 pM

From patent US20140350088A1
